{"source": "paper PMC7695167", "about": "“Targeting the Interaction between the SH3 Domain of Grb2 and Gab2” (Cells, 2020)", "binders": {"B1": {"name": "Grb2 C-SH3, P62993 (protein)", "chain": "QQPTYVQALFDFDPQEDGELGFRRGDFIHVMDNSDPNWWKGACHGQTGMFPRNYVTPVNR"}}, "biological_target": "Gab2 503-524 (Homo sapiens), Q9UQC2", "sequence (Q9UQC2 503-524)": "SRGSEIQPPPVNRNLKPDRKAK", "note": "“And” between values parts separate entries of the source, which are not always exact repeats. Identical values can stand only once.", "data": [{"binder": "B1", "values": [{"measurement": "Kd", "value": "100 µM and 22 µM"}]}]}
